According to EP4725967A1 (Nanjing Probio Biotech Co., Ltd., dated 2026):
One block for each binder: values may come before it.

Tests used:
[1] = target: T1, human CCR8 (human, UniProt P51685 1-355); experiment: flow cytometry, hybridoma supernatant on HEK293/hu-CCR8 cells
T1 construct: whole, on cells; also called hu-CCR8; CC chemokine receptor 8

[2] = target: T1, human CCR8; experiment: flow cytometry on HEK293/hu-CCR8 cells (FIG. 5A)
[3] = target: T1, human CCR8; experiment: flow cytometry on HEK293/hu-CCR8 cells, chimeric antibody (FIG. 1A)
[4] = target: T1, human CCR8; experiment: flow cytometry on HEK293/hu-CCR8 cells, chimeric antibody (FIG. 1B)

T1 sequence (P51685 whole entry): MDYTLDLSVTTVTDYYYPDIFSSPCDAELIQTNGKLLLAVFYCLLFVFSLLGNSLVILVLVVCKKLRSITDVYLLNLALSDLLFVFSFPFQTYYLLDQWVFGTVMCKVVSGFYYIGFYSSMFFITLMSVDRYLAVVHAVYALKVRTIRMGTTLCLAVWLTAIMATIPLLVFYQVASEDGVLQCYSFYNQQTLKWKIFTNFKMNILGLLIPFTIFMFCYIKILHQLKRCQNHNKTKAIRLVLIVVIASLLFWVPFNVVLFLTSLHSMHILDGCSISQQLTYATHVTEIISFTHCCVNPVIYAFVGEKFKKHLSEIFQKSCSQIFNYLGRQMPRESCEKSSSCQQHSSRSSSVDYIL

binding result [4]: binds
B6: chimeric antibody 224E9A3 (antibody, human IgG1, kappa, V domains shown)
VH: EVQLVESGGGLVQPKGSLKLSCAASGFTFNTYAMYWVCQAPGKGLEWVARIRSKSNNYATYYADSVKDRFTISRDDSQSMLYLQMNNLKTEDTAMYYCVRGGRGNYLYAMDYWGQGTSVTVSS
VL: DIVMTQAAPSVPVTPGESVSISCRSSKSLLHSNGNTYLYWFLQRPGQSPQLLIYRMSNLASGVPDRFSGSGSGSAFTLRISRVEAEDVGVYYCMQHLEYPFTFGSGTKLEIKR
notes: Murine variable regions on human IgG1/kappa

binding result [3]: binds
B7: chimeric antibody 117G9F9 (antibody, human IgG1, kappa, V domains shown)
VH: EVQLVESGGGLVQPKGSLKLSCAASGFSFNTYAMNWVRQAPGKGLEWVARIRSKSNYYATYYADSVKDRFTISRDDSESMLYLQMNNLKTEDTAMYYCVRGGNSYGSSYFDYWGQGTTLTVSS
VL: DIVMTQAAPSVPVTPGESVSISCRSSKSLLHRNGNTYLYWFLQRPGQSPQLLIYRMSNLASGVPDRFSGSGSGTAFTLRISRLEAEDVGVYYCMQHLEYPFTFGAGTKLELKR
notes: as for B6

binding result [1]: binds
B8: antibody produced by monoclonal clone 224E9A3 (murine, hybridoma) (antibody, V domains shown)
VH: EVQLVESGGGLVQPKGSLKLSCAASGFTFNTYAMYWVCQAPGKGLEWVARIRSKSNNYATYYADSVKDRFTISRDDSQSMLYLQMNNLKTEDTAMYYCVRGGRGNYLYAMDYWGQGTSVTVSS
VL: DIVMTQAAPSVPVTPGESVSISCRSSKSLLHSNGNTYLYWFLQRPGQSPQLLIYRMSNLASGVPDRFSGSGSGSAFTLRISRVEAEDVGVYYCMQHLEYPFTFGSGTKLEIK
notes: Mouse antibody in hybridoma supernatant

Further lines, the binder ahead of its results:

B1: antibody produced by monoclonal clone 117G9F9 (murine, hybridoma) (antibody, V domains shown)
VH: EVQLVESGGGLVQPKGSLKLSCAASGFSFNTYAMNWVRQAPGKGLEWVARIRSKSNYYATYYADSVKDRFTISRDDSESMLYLQMNNLKTEDTAMYYCVRGGNSYGSSYFDYWGQGTTLTVSS
VL: DIVMTQAAPSVPVTPGESVSISCRSSKSLLHRNGNTYLYWFLQRPGQSPQLLIYRMSNLASGVPDRFSGSGSGTAFTLRISRLEAEDVGVYYCMQHLEYPFTFGAGTKLELK
notes: Mouse antibody in hybridoma supernatant; Taking 31/32 as murine rests only on the order of listing
binding result [1]: binds

B2: humanized antibody 154G7C3-VH1.1-VL2 (antibody, human IgG1, kappa, V domains shown)
VH: QVQLVQSGAEVKKPGASVKVSCKVSGYTFTDFEMHWVRQAPGKGLEWIGAFDPETGGTAYNQKFKGRVTMTEDTSTDTAYMELSSLRSEDTAVYYCTGRLRRHFDSWGQGTLVTVSS
VL: DIVMTQSPLSLPVTPGEPASISCRSSQSLVHSYGNTYLHWYLQKPGQSPQLLIYKVSNRFSGVPDRFSGSGSGTDFTLKISRVEAEDVGVYYCSQSTHVPFTFGQGTKLEIKR
notes: Human IgG1/kappa
binding result [2]: binds

B3: humanized antibody 117G9F9-VH2.1-VL1 (antibody, human IgG1, kappa, V domains shown)
VH: EVQLVESGGGLVKPGGSLRLSCAASGFSFNTYAMNWVRQAPGKGLEWVGRIRSKSNYYATYYADSVKDRFTISRDDSKNTLYLQMNSLKTEDTAVYYCVRGGNSYGSSYFDYWGQGTLVTVSS
VL: DIVMTQSPLSLPVTPGEPASISCRSSKSLLHRNGNTYLYWYLQKPGQSPQLLIYRMSNLASGVPDRFSGSGSGTDFTLKISRVEAEDVGVYYCMQHLEYPFTFGQGTKLEIKR
notes: Human IgG1/kappa
binding result [2]: binds

B4: antibody produced by monoclonal clone 154G7C3 (murine, hybridoma) (antibody, V domains shown)
VH: QVQLQQSGAELVRPGASVTLSCKTSGYTFTDFEMHWVKQTPVHGLEWIGAFDPETGGTAYNQKFKGKAILTADKSSSTAYMELRSLTSEDSAVYYCTGRLRRHFDSWGQGTTLTVSS
VL: DVVMTQTPLSLPVSLGDQASISCRSSQSLVHSYGNTYLHWYLQKPGQSPKLLIYKVSNRFSGVPDRFSGSGSGTDFTLKISRVEAEDLGVYFCSQSTHVPFTFGSGTKLEIK
notes: Mouse antibody in hybridoma supernatant; Taking 27/28 as murine rests only on the order of listing
binding result [1]: binds

B5: chimeric antibody 154G7C3 (antibody, human IgG1, kappa, V domains shown)
VH: QVQLQQSGAELVRPGASVTLSCKTSGYTFTDFEMHWVKQTPVHGLEWIGAFDPETGGTAYNQKFKGKAILTADKSSSTAYMELRSLTSEDSAVYYCTGRLRRHFDSWGQGTTLTVSS
VL: DVVMTQTPLSLPVSLGDQASISCRSSQSLVHSYGNTYLHWYLQKPGQSPKLLIYKVSNRFSGVPDRFSGSGSGTDFTLKISRVEAEDLGVYFCSQSTHVPFTFGSGTKLEIKR
notes: as for B6
binding result [3]: binds
